Reference: patent US20240294622A1 (SUZHOU TRANSCENTA THERAPEUTICS, published 2024)

T1: HGREM1-His (ACRO) (human, UniProt O60565 25-184)
T1 construct: Lys25-Asp184 of NP_037504 with C-terminal polyhistidine tag (ACRO GR1-H52H3); they are put here; also called hGREM1 (ACRO); human gremlin (ACRO)
T1 sequence: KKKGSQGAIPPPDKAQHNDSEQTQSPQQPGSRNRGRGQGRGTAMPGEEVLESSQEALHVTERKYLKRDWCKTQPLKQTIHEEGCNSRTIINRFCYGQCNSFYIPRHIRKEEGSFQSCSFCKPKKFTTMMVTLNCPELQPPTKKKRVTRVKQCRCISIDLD

T2: XM5-Fc (human (hGREM1 with residues 123-143 …))
T2 construct: also called gremlin 1-DAN fusion protein
T2 chain: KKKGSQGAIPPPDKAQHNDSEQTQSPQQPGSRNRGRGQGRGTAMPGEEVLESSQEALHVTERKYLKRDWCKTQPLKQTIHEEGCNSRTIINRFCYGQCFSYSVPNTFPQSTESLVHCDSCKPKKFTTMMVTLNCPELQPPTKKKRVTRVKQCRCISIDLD

T3: human gremlin-2 (R&D) (human, UniProt Q9H772 22-168, limits assumed)
T3 construct: also called GREM2
T3 sequence (looked up): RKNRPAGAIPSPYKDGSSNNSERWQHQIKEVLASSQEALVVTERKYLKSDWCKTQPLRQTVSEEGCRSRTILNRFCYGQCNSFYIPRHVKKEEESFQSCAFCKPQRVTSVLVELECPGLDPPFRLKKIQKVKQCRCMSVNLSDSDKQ


Assays:
[1] = target: T1, HGREM1-His (ACRO); assay: blocking ELISA, Human Gremlin-1 binding to BMP2; column Percentage
Experimental: In addition, the ability of serial dilutions of antibodies provided herein to block Gremlin binding to human BMP2/4/7 was also examined via ELISA. Plates were coated with recombinant human BMP2/4/7 (0.5 μg/ml) overnight and then serial dilutions of antibodies were incubated with 1 μg/ml of human Gremlin-his modified for 1 h at RT before this complex was added to coated plates and allowed to incubate for an additional hour at RT. The plates were then washed and added with anti-his HRP (GenScript). Plates were then developed with a TMB solution and stopped by adding stop solution. The plates were read on a plate reader at 450 nm. […] The chimeric anti-gremlin 1 antibodies (69H5-chi) and chimeric anti-gremlin 1 antibodies (22F1-chi) also can inhibit the binding of gremlin to BMP2 and BMP4 (see, FIG. 3E and FIG. 3F). The chimeric anti-gremlin 1 antibodies (56C11-chi) can inhibit the binding of gremlin to BMP2 (see, FIG. 3E).

[2] = target: T2, XM5-Fc; assay: ELISA on coated XM5-Fc (column XM5)
Experimental: Binding affinities to hGREM1 and XM5 were also compared. Briefly, XM5-Fc or Gremlin-his […] was coated. 100 μl of block solution consisting of PBS+1% BSA+1% normal goat serum+0.5% Tween 20 (Sigma) was added to each well and incubated at room temperature for 2 hours. 4-fold serial antibody dilution from 2 μg/ml were added. Afterward the plates were washed three times with 200 ul of PBS+0.1% Tween20 followed by adding 100 μl/well 1:10000 Goat anti mouse IgG-HRP (abeam), and incubate for 1 hour at room temperature. They were then washed 3× with PBS+0.1% Tween20. Finally, 100 μl/well of TMB (InnoReagents) was added to each well and after 2 minutes add 50 ul of stop solution to each well. The plates were read on a Multiscan FC microplate reader (Thermo Scientific) at […]. The EC50 values were show in table below.

[3] = target: T1, HGREM1-His (ACRO); assay: competition ELISA on captured human gremlin (Acro,0.5ug/ml), upper panel: hybridoma 14E3 titrated against a fixed amount of chimeric 22F1-C, bound chimeric antibody detected
Experimental: Epitope binning of anti-gremlin hybridoma antibodies were performed using a competition ELISA assay. Clear polystyrene plates (BEAVER) were coated with 100 μl/well of a 0.5 μg/ml hGREM1 (ACRO) in high pH coating buffer overnight at 4° C. Then the plates were washed once on an automatic plate washer using PBS+0.1% Tween 20 (Sigma). 100 μl of block solution consisting of PBS+1% BSA+1% normal goat serum+0.05% Tween 20 (Sigma) was added to each well and incubated at room temperature for 2 hours. Then 50 μl/well of 20 μg/ml saturated antibodies (hybridoma antibodies) in antibody dilution buffer (PBS+1% BSA+1% normal goat serum+0.01% Tween 20) were then added to each well of the plate and incubate for 1 hour. Then add 50 μl/well of 40 ng/ml competitive antibodies (chimeric antibodies, e.g., 14E3-C, 22F1-C, 56C11-C, and 69H5-C) to each well of the plate and incubate for another 1 hour at room temperature. […] The plates were read on a plate reader at 450 nm. The failure of the second antibody to bind in the presence of saturating quantities of the first antibody indicates the two antibodies were in the same epitope bin; the success of the second antibody to bind in the presence of the saturating quantities of the first antibody indicates the two antibodies were in different epitope bins. […]
The amount of chimeric antibody bound to gremlin were determined.

[4] = target: T3, human gremlin-2 (R&D); assay: ELISA on coated human gremlin-2 (R&D, 0.5ug/ml), anti-mouse IgG-HRP
Experimental: In addition, the specificity of the binding of 14E3 and a benchmark antibody was assessed with ELISA. Briefly, clear polystyrene plates (BEAVER) were coated with 100 μl/well of a […] hGREM1 (ACRO), or human gremlin-2 (R&D), human COCO (R&D) and human DAN protein (R&D) in high pH coating buffer overnight at 4° C. Then the plates were washed once on an automatic plate washer using PBS+0.1% Tween 20 (Sigma). 100 μl of block solution consisting of PBS+1% BSA+1% normal goat serum+0.5% Tween 20 (Sigma) was added to each well and incubated at room temperature for 2 hours. Then 100 ul of antibodies in antibody dilution buffer containing PBS+1% BSA+1% normal goat serum+0.01% Tween 20 starting from 2 μg/ml and then 5 fold serial dilution were added to each well of the plate and incubated for 1 hours at room temperature. Afterward the plates were washed three times with 200 ul of PBS+0.1% Tween20 followed by adding 100 μl/well 1:10000 Goat anti mouse IgG-HRP (Abcam), and incubate for 1 hour at room temperature. They were then washed 3× with PBS+0.1% Tween20. Finally, 100 µl/well of TMB (Pierce) was added to each well and after 5 minutes add 50 ul of stop solution to each well. The plates were read on a Multiscan FC microplate reader (Thermo Scientific) at […].

IC50 [1] [µg/mL]	EC50 [2] [µg/mL]	IC50 (read off the curve) [3] [µg/mL]	binding result [4]	Binder
0.604	0.00692	–	–	36F5 (antibody, V domains shown, mouse hybridoma antibody; also called hybridoma 36F5) VH: QVQLQQSGAELARPGASVKLSCKASGYSFTSSGIGWVKQRSGQGLEWIGEIYPRSGNTYNNEKFKGKATLTADKSSSTVYMELRSLTSEDSAVYFCVREAYSHHYYAMDYWGQGTSVTVFS VL: DVLMTQTPLSLPVSLGGQASISCRSSQSLLHSNGNTYLEWYLQKPGQSPKLLIYKVSNRFSGVPDRLSGSGSGTDFTLKISRVEAEDLGVYYCFQGSHVPFTFGSGTKLEIN
–	–	~1	no binding (tested: 1 ug/ml)	14E3 (antibody, V domains shown, mouse hybridoma antibody; also called hybridoma 14E3; anti-gremlin1 antibody 14E3) VH: QIQLVQSGPELKKPGETVKISCKTSGSTFTTYGMAWMKQAPGKGLTWMGWINTLSGEPTYADDFKGRFAFSLKTSANTAYLQINNLKNEDAATYFCAREPMDYWGQGTSVIVSS VL: not shown
